# Results reported in article PMC11806767, “The tryptophan-aspartate (WD) repeat domain of bovine Coronin-1A promotes mycobacterial survival by inhibiting calcium signaling-mediated phagosome-lysosome fusion” (Veterinary Research, 2025).
# B1: bovine Coronin-1A (p3×Flag-bCoronin-1A) (natural protein)
# chain: MSRQVVRSSKFRHVFGQPAKADQCYEDVRVSQNTWDSGFCAVNPKFVALICEASGGGAFLVLPLGKTGRVDKNVPMVCGHTAPVLDIAWCPHNDNVIASGSEDCSVMVWEIPDGGLTLPLREPVVTLEGHTKRVGIVAWHPTAQNVLLSAGCDNVILVWDVGTGVAVLTLGSDVHPDTIYSVDWSRDGALICTSCRDKRVRIIEPRKGTIVAEKDRPHEGTRPVRAVFVSDGKILTTGFSRMSERQVALWDTKHLEEPLSLQELDTSSGVLLPFFDPDTNIVYLCGKGDSSIRYFEITSEAPFLHYLSMFSSKESQRGMGYMPKRGLEVNKCEIARFYKLHERKCEPIAMTVPRKSDLFQEDLYPPTAGPDAALTAEEWLGGRDAGPLLISLKDGYVPPKSRELRVNRGLDTGRKRTTPEASGAPSSDAISRLEEEMRKLQATVQELQKRLDRLEETVQAK
# Target: the molecule itself
# Assay: native gel or EMSA
protein,measurement,value
B1,stoichiometry N,3
